Results reported in patent US20060177918.

Each substance was assayed on Myelin Basic Protein (Upstate USA, Inc. cat. no: 13-104).

Row | Substance | increase in fluorescence over time (real-time kinase assay)
1 | MAP kinase1/Erk1 (Upstate USA, Inc.) | greater than 4 fold increase in fluorescence over time
2 | MAP kinase2/Erk2 (Upstate USA, Inc.) | greater than 4 fold increase in fluorescence over time
3 | PKCβII (Upstate USA, Inc.) | greater than 4 fold increase in fluorescence over time
